The values that follow come from US20090069239.

For this data set, the target named is protamine.

Several values for one entry are separate records, joined by “and”; a condition that tells them apart may be missing. Identical values can stand only once.

B1: iridoptin (37-kDa polypeptide expressed from the subgenic istk fragment of Chilo iridescent virus, 6xHis-tagged, Pichia-expressed) (protein)
chain: MDLKDEFIQIIKKYSELSLKESENETKKYIQEVFNVSLSEVFIKEPSKQETLKQEPTQETGCIYIFKKGKNIGQKCGSGKSKFCYKHKKNDLNIKVNQERNIKKPIPKPIPTNKIETGSVINQNWFIGTSIGKGGFGEIYSAAKFNDHGNYKDDDFSFAIKIEPKSGPLFVEMHFYKRVIVEKEIEKFKLQKNIQYLGLPKYYGSGLYNDYRYIVMEKYDSNIDKLFRNGDLNSSTILQIGIQILNIVEYIHSKGYIHADIKGENILLKENDTSHIYLVDFGLCSRYSNG
As for B1, the SPECIFIC ACTIVITY (CPM/µg TOTAL PROTEIN), protein kinase assay (CPM/µg total protein) is 1110 and 895; the SPECIFIC ACTIVITY (CPM/µg TOTAL PROTEIN), protein kinase assay, mean (CPM/µg total protein) is 1000.
